Holding throughout (type): cell-based
The test system of assay [1] is CRL cells (human melanoma cells). The assay is described as follows: AP-Del-1 conditioned medium added to cells, H33342 and C3-annexin V staining (Example 5). As to conditions: conditioned medium of Cos cells with AP fusion protein, 24 hours after addition. Here is the method: (§1) cDNA for full-length Del-1 (SEQ ID NO: 4) was integrated into an alkaline phosphatase (AP) expression vector (APtag4) and then introduced into cultured Cos cells. As a control, an AP expression vector free from the cDNA for full-length Del-1 was used. The resulting culture supernatant was measured for AP activity, normalized for AP fusion protein concentration and then added to a culture of CRL cells (human melanoma cells) or P5 cells (vascular endothelial cell line) (instead of using direct gene transfer, Cos cells were allowed to produce a recombinant protein and the resulting conditioned medium was used, because CRL and P5 were low in the efficiency of gene transfer). At 24 hours after addition, the cells were stained with H33342 and with C3-annexin V for observation.

In assay [2] the test system is P5 cells (vascular endothelial cell line). Described as above. As to conditions: conditioned medium of Cos cells with AP fusion protein, 24 hours after addition. On the procedure: as §1
Assay [3] relates to Cos cells. The assay is described as follows: LDH activity in supernatant of Cos cells transformed with cDNA for Del-1 or its parts (Example 7). As to conditions: APtag4 vector, medium replaced 24 hours after gene transfer, measured after further one hour. An excerpt: cDNA for full-length Del-1 (SEQ ID NO: 4) was integrated into an AP expression vector (APtag4) and then introduced into cultured Cos cells. Likewise, cDNA for a part of Del-1 was also integrated into APtag4 and then introduced into cultured Cos cells. As a control, an AP expression vector free from the above cDNA for full-length Del-1 or a part thereof was used. It should be noted that the members each used as a part of Del-1 were EGF-like domains in the full-length Del-1 protein, i.e., EGF1 (E1; cDNA: SEQ ID NO: 26, amino acid sequence: SEQ ID NO: 27), EGF2 (E2; cDNA: SEQ ID NO: 28, amino acid sequence: SEQ ID NO: 29) and EGF3 (E3; cDNA: SEQ ID NO: 6, amino acid sequence: SEQ ID NO: 7), a fusion protein between discoidin I-like domains, i.e., Discoidin1 and Discoidin2 (C1C2; cDNA: SEQ ID NO: 30, amino acid sequence: SEQ ID NO: 31), an amino acid substitution (D136E) mutant of the above full-length Del-1 (Del1m; cDNA: SEQ ID NO: 32, amino acid sequence: SEQ ID NO: 33), as well as an amino acid substitution (D136E) mutant of E3, i.e., E3 D136E (E3m; cDNA: SEQ ID NO: 34, amino acid sequence: SEQ ID NO: 35). […] At 24 hours after gene transfer, the medium in each case was replaced with fresh culture medium and, after further one hour, the supernatant was measured for LDH activity. A cell lysate was prepared for each case and measured for LacZ activity. […]

Assay [4] has as its system Cos cells. The assay is described as follows: Del-1 gene transfer into cultured Cos cells, H33342 nuclear staining, phase contrast and fluorescent microscopy (Example 1). Particulars: 24 hours after gene transfer of cDNA in pcDNA3. Here is the method:
cDNA for full-length Del-1 (SEQ ID NO: 4) was integrated into an expression vector, pcDNA3 (Invitrogen), and then introduced into cultured Cos cells. As a control, pcDNA3 free from the cDNA for full-length Del-1 was used. At 24 hours after gene transfer, the cells were stained with H33342 (Hoechst) for cell nuclear staining and observed under a phase contrast microscope (transmission image) and a fluorescent microscope (H33342).

For assay [5], the system named is Cos cells. The assay is described as follows: Del-1 gene transfer into cultured Cos cells, chromosomal DNA electrophoresis and silver staining (Example 2). As to conditions: Cos cells forced to express Del-1 (pcDNA3). The source says:
cDNA for full-length Del-1 (SEQ ID NO: 4) was integrated into an expression vector, pcDNA3 (Invitrogen), and then introduced into cultured Cos cells. As a control, pcDNA3 free from the cDNA for full-length Del-1 was used. For normalization of the gene transfer rate, DNA carrying the LacZ gene was also introduced simultaneously. The results obtained are shown in FIG. 2 (left and right panels).
Left panel: Chromosomal DNAs were taken from the cells and electrophoresed on a polyacrylamide gel, followed by silver staining.

For assay [6], the system named is Cos cells. The assay is described as follows: Del-1 gene transfer into cultured Cos cells, H33342 and C3-annexin V staining (Example 3). As to conditions: 24 hours after gene transfer. On the procedure: cDNA for full-length Del-1 (SEQ ID NO: 4) was integrated into an expression vector and then introduced into cultured Cos cells. At 24 hours after gene transfer, the cells were stained with H33342 and with C3-annexin V (annexin V conjugated with the fluorescent dye C3) and then observed under a fluorescent microscope.
It should be noted that annexin V is capable of binding to phosphatidylserine, a component of cell membranes, while phosphatidylserine is known to leak (to be localized) outside of the cell membrane when the cells undergo apoptosis.

Assay [7] relates to Cos cells. The assay is described as follows: eGFP-Del-1 expression vector in cultured Cos cells, H33342 staining (Example 4). Particulars: expressed as eGFP-Del-1 fusion protein, 24 hours after gene transfer. Here is the method:
An expression vector designed to carry cDNA encoding eGFP-Del-1 (a fusion protein between eGFP and full-length Del-1) was introduced into cultured Cos cells. At 24 hours after gene transfer, the cells were fixed and stained with H33342.
This would mean that Del-1 secreted from the cells receiving Del-1 gene transfer would also act on their adjacent cells to thereby induce apoptosis in these cells.

Assay [8] has as its system CRL cells (human melanoma cells). The assay is described as follows: AP-Del-1 conditioned medium added to cells, chromosomal DNA electrophoresis and silver staining (Example 6). As to conditions: 24 hours after addition. Here is the method:
as §1, with “AP” for “alkaline phosphatase (AP)”, “addition, chromosomal DNAs were taken from” for “addition,”, “cells” for “cells were stained with H33342”, “electrophoresed on a polyacrylamide gel, followed by silver staining.” for “with C3-annexin V for observation.”

Assay [9] relates to P5 cells (vascular endothelial cell line). The description is as above. As to conditions: 24 hours after addition. On the procedure: as §1, with “AP” for “alkaline phosphatase (AP)”, “addition, chromosomal DNAs were taken from” for “addition,”, “cells” for “cells were stained with H33342”, “electrophoresed on a polyacrylamide gel, followed by silver staining.” for “with C3-annexin V for observation.”

The text below walks through data of patent US20120245099A1, “APOPTOSIS INDUCER” (NIHON UNIVERSITY, priority 2009, published 2012).

B1: full-length Del-1: developmentally regulated endothelial cell locus-1 protein, extracellular matrix protein, amino acid sequence SEQ ID NO: 5 (protein, listed as Mus musculus)
chain: MKHLVAAWLLVGLSLGVPQFGKGDICNPNPCENGGICLSGLADDSFSCECPEGFAGPNCSSVVEVASDEEKPTSAGPCIPNPCHNGGTCEISEAYRGDTFIGYVCKCPRGFNGIHCQHNINECEAEPCRNGGICTDLVANYSCECPGEFMGRNCQYKCSGPLGIEGGIISNQQITASSTHRALFGLRKWYPYYARLNKKGLINAWTAAENDRWPWIQINLQRKMRVTGVITQGAKRIGSPEYIKSYKIAYSNDGKTWAMYKVKGTNEEMVFRGNVDNNTPYANSFTPPIKAQYVRLYPQICRRHCTLRMELLGCELSGCSEPLGMKSGHIQDYQITASSVFRTLNMDMFTWEPRKARLDKQGKVNAWTSGHNDQSQWLQVDLLVPTKVTGIITQGAKDFGHVQFVGSYKLAYSNDGEHWMVHQDEKQRKDKVFQGNFDNDTHRKNVIDPPIYARFIRILPWSWYGRITLRSELLGCAEEE
For the molecule B1, the “apoptosis by H33342 and C3-annexin V staining” value (in assay [1]; in assay [2]; with Cos cells [6]) was “these cells underwent apoptosis” in each case. For the same molecule, in the assay on Cos cells [3], the “increase in LDH activity of supernatant, normalized by LacZ activity” value is recorded as “increase in LDH activity”. In addition, the “chromosome aggregation (H33342 nuclear staining)” value with Cos cells [4] is “chromosomes were aggregated”. In addition, the “DNA ladder pattern indicative of apoptosis” value (in the assay on Cos cells [5]; in [8]; in assay [9]) was “ladder pattern indicative of apoptosis was observed” in each case. In addition, the “apoptosis (chromosomal aggregation, H33342) in cells expressing the fusion protein” value in the assay on Cos cells [7] is on record as “found to undergo apoptosis”.
